Source: the supplement of paper PMC9732359
± gives the uncertainty stated by the source.

Assay: protein stability index of a GFP-peptide fusion (yeast GPS) (PSI 1-4); higher = more stable; sorted into four equal gates, so the index is relative within each strain
In short: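 Plasmids isolated from each sorting gate were PCR-amplified and Illumina-sequenced, and barcodes assigned the reads to strains. The gates, four of equal size, were set by GFP/Cherry fluorescence ratio on mid-log cultures in leucine-free medium. These cultures were yeast carrying a pooled library of tiled 17-residue yeast protein peptides fused downstream of GFP on a plasmid that also expresses Cherry. The protein stability index is the sum of every gate's read frequency times its gate number.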

Sequence | protein stability index (doa10∆) | protein stability index (pdr5∆) | protein stability index (san1∆) | protein stability index (ubr1∆)
EEEDSILSLEQSSRVVS [YCS4] | 3.11 ± 0.12 | 3.24 ± 0.08 | 3.19 ± 0.062 | 3.06 ± 0.086
NGNKDSSFNFNKNLPFV [SWI1] | 3.21 ± 0.058 | 3.38 ± 0.068 | 3.28 ± 0.051 | 3.31 ± 0.043
LMKKACYVGLLTAIPIL [SNU114] | 1.55 ± 0.035 | 1.45 ± 0.036 | 1.53 ± 0.054 | 1.66 ± 0.032
LLNKNTGNNLYDRNSNN [SWI1] | 2.79 ± 0.065 | 2.85 ± 0.06 | 2.7 ± 0.064 | 2.9 ± 0.038
QVLLDEEYKQLVKDRKF [RPO21] | 3.07 ± 0.085 | 3.28 ± 0.06 | 3.15 ± 0.14 | 2.82 ± 0.1
QMTQIMDIMEDFLRYIN [SNF2] | 1.21 ± 0.032 | 1.33 ± 0.034 | 1.4 ± 0.08 | 1.43 ± 0.027
NASGNKRSGVIETVDDK [ITC1] | 2.55 ± 0.09 | 2.58 ± 0.097 | 2.27 ± 0.12 | 2.45 ± 0.052
VEEVIKLVRDSFTSATE [PRE7] | 3.06 ± 0.078 | 3.33 ± 0.066 | 3.18 ± 0.052 | 3 ± 0.061
HHRIFDSSAHFKGALTI [YMR129W/POM152] | 2.56 ± 0.073 | 2.73 ± 0.084 | 2.44 ± 0.14 | 2.62 ± 0.053
VVWYQRLTMGNVFTPEI [RRI2] | 2.03 ± 0.074 | 2.3 ± 0.058 | 2.27 ± 0.12 | 2.45 ± 0.073
VEISLVNGAKNLVVSGP [FAS1] | 2.76 ± 0.15 | 2.6 ± 0.1 | 2.3 ± 0.1 | 2.51 ± 0.21
VHKERHDGGFDLVHIKD [RPS4A] | 1.48 ± 0.084 | 1.94 ± 0.069 | 1.61 ± 0.15 | 1.84 ± 0.05
RYKPGTVALREIRRFQK [HHT1] | 3.19 ± 0.11 | 2.97 ± 0.091 | 3.07 ± 0.065 | 3.07 ± 0.078
SGNIQLDEIIEIARQMR [RPL12A] | 3.07 ± 0.12 | 3 ± 0.12 | 3.05 ± 0.08 | 3.35 ± 0.14
NPYSSYVSQIRKHKRVS [YAR002W/NUP60] | 2.23 ± 0.081 | 1.88 ± 0.05 | 2.85 ± 0.049 | 2.38 ± 0.067
DPESRTQSYNNQNTLKE [POP1] | 2.72 ± 0.069 | 2.69 ± 0.056 | 2.88 ± 0.079 | 2.79 ± 0.05
SLDFLNQSFIQQKANLL [COR1] | – | 1.77 ± 0.13 | – | 1.65 ± 0.079
SRPATTTRNGFMEAQGA [FAS2] | 2.28 ± 0.049 | 2.18 ± 0.046 | 2.48 ± 0.065 | 2.21 ± 0.039
NFTCNRKILNFKKDLVI [SWI1] | 2.66 ± 0.081 | 2.88 ± 0.063 | 2.46 ± 0.1 | 2.87 ± 0.075
LIKDNSAMVTTAAAADI [SRB2] | – | 1.78 ± 0.29 | – | –

Sequence | protein stability index (doa10∆) | protein stability index (pdr5∆) | protein stability index (san1∆) | protein stability index (ubr1∆)
QLAVRAPKGQNTLILRG [RPL18A] | 2.86 ± 0.28 | – | – | –
SNDVLKPETPKGPIIIS [SIR2] | 3 ± 0.11 | 2.92 ± 0.077 | 2.78 ± 0.071 | 2.7 ± 0.077
IGFITSGTYHLNCGNGM [POP1] | 2.56 ± 0.1 | 2.93 ± 0.082 | 2.09 ± 0.093 | 2.92 ± 0.048
IHFREHQSELIIKQTVH [YMR129W/POM152] | 2.46 ± 0.072 | 2.85 ± 0.069 | 2.48 ± 0.097 | 2.21 ± 0.053
NISSSQQLLPAPQLFPY [DSN1] | 2.44 ± 0.12 | 2.71 ± 0.097 | 2.62 ± 0.078 | 2.84 ± 0.086
LGNVIVPNILSLDMNSM [NUT1] | 2.16 ± 0.06 | 2.17 ± 0.058 | 2.04 ± 0.093 | 2.27 ± 0.051
QLAGKSGEDTNVGLPIL [YOR098C/NUP1] | 2.86 ± 0.15 | 3.32 ± 0.084 | 3.36 ± 0.062 | 3.25 ± 0.052
FHSTYLMNGVKPFKSFL [FAS1] | 2.65 ± 0.12 | 2.55 ± 0.078 | 3.33 ± 0.15 | 2.87 ± 0.068
LTFVSVDEELGPSIYKT [SCL1] | 2.37 ± 0.065 | 1.94 ± 0.05 | 3.02 ± 0.054 | 2.99 ± 0.067
PHTPVTRKGYIPSSKYA [YLR018C/POM34] | 3.15 ± 0.065 | 3.18 ± 0.089 | 2.96 ± 0.082 | 3.07 ± 0.052
NVLFLRLFNNVKIHSQE [SRP72] | 2.18 ± 0.049 | 2.06 ± 0.04 | 1.66 ± 0.061 | 2.08 ± 0.036
GYKMIPGAKPLQVGDVV [FAS1] | 2.43 ± 0.1 | 2.44 ± 0.1 | 2.37 ± 0.1 | 1.79 ± 0.14
TVEPVYQMHIKTSKDIA [FAS1] | 1.29 ± 0.044 | 1.33 ± 0.063 | 1.31 ± 0.081 | 1.35 ± 0.065
IRQYALATAHIYLSRFL [SSN8] | 1.38 ± 0.034 | 1.34 ± 0.036 | 1.26 ± 0.12 | 1.11 ± 0.04
KRLLGTAFKSSPFGGSS [RPS23A] | 2.22 ± 0.043 | 2.61 ± 0.045 | 2.33 ± 0.055 | 2.23 ± 0.034
YVYRASKEVRGSKIRVM [RPL33A] | 2.75 ± 0.063 | 2.81 ± 0.086 | 2.5 ± 0.064 | 2.88 ± 0.049
VVRNMLALTTLSEPLIK [YCG1] | 1.87 ± 0.07 | 1.6 ± 0.059 | 1.4 ± 0.11 | 1.66 ± 0.061
CASIPIAIIKDTSDIIV [RRP46] | 1.73 ± 0.044 | 1.88 ± 0.043 | 1.75 ± 0.065 | 1.6 ± 0.04
DNISSFHSAVENLVQGN [YCG1] | 3.26 ± 0.08 | 3 ± 0.064 | 3.17 ± 0.067 | 3.31 ± 0.11
GAGGLNPFTSATSSTNA [YOR098C/NUP1] | 2.04 ± 0.12 | 2.07 ± 0.18 | 2.69 ± 0.18 | 2.94 ± 0.13
